Experimental findings from patent US20220273823A1, “THERANOSTIC CONJUGATES” (Ariel Scientific Innovations Ltd., priority 2019, published 2022) are described below.

Like-named read-outs stand apart in the source and are kept apart here.

One series relates to Panc-1. Put plainly: XTT cell survival assay (growth inhibition), Panc-1. The class given is cell-based, human. Particulars: Panc-1, XTT, up to 25 μM. On the procedure: The cytotoxicity of the peptide-drug conjugates was determined by measuring the mitochondrial enzyme activity, using a commercial XTT assay kit. All samples were prepared in PBS pH 7.4 contained 3% DMSO. The Cells were cultured in micro wells at a concentration 5-10×10^4 cells/well. The cells were washed and fresh cell medium containing different concentrations (up to 25 μM) of the conjugates were added and the cells were incubated for 10 minutes. The cultures were washed and then given a fresh medium and cultured for 48 hours and 72 hours. At the end of the second incubation, XTT reagent was added and the cells were re-incubated for additional 2-4 hours. During that time the absorbencies in the wells were measured with a TECAN Infinite M200 ELISA reader at 480 nm and 680 nm. The difference in the absorbencies measurements at these two wavelengths was used for calculating the percentage Growth Inhibition (GI) in test wells compared to two controls: cells that were exposed to the medium and solvent, and those which were exposed to a solvent-free medium. All the tests were done in triplicate.
Background: Tetrazolium assays rely on reduction of a dye to a coloured formazan, in cell work by metabolically active cells.

The nature of series [1]: Real time fluorescence microscopy monitoring of CLB release in CHO cells (negative control). The format is cell-based, Chinese hamster. The conditions noted are these: hamster, pH 7.4, 10 min incubation with 10 μM, 37° C., read-out: CLB cleavage half-life τ1/2 (converted). On the procedure: (§1) In the next step, the inventors investigated the performance of OCTA-G-XCy-CLB in real time monitoring of drug delivery and drug release into human pancreatic cancer cell line (Panc-1). As a negative control, Chinese hamster ovary cell line (CHO) was employed. Panc-1 contains overexpressed somatostatin receptors SSTR-2 and SSTR-5 while the CHO has the decreased number of these receptors. Panc-1 and CHO were incubated at 37° C. for 10 min with 10 μM OCTA-G-XCy-CLB in PBS pH 7.4 containing 3% DMSO and washed thoroughly with PBS pH 7.4 to remove excess conjugate. Then the fluorescence microscopy images were taken over time (FIGS. 7A, B). The fluorescence intensities for both cell lines gradually increase over time signaling the CLB release. […]
(§2) To monitor drug release, Panc-1 and CHO cell lines were grown in six-well culture plates and then washed with PBS (pH 7.4) two times after that incubated for 10 min with 10 μM OCT(N)-G-XCy-CLB in PBS pH 7.4 containing 3% DMSO. […] The washed cell samples were resuspended in PBS and immediately analyzed the fluorescence changes by using fluorescent microscope. […]
(§3) The band intensities in a representative experiment were quantified by creating region of interest (ROI) around each image and the relative fluorescence intensity of each sample was measured (via the “Measure” function) with Image J software.

The nature of series [2]: Time-dependent absorption/fluorescence CLB cleavage profiles of XCy-CLB and OCTA-G-XCy-CLB in PB and cell medium. The class given is in vitro ADME. The conditions noted are these: read-out: CLB release half-life τ1/2 (converted). The protocol: To estimate the rate of the CLB release, the time-dependent absorption and fluorescence spectra of XCy-CLB and OCTA-G-XCy-CLB were measured in PB and CM (see, FIGS. 5A-H). With respect to time, the absorption band at about 600 nm decreases, a new band at about 680 nm increases and a fluorescence band subsequently appears at ˜708 nm (λex=650 nm).
Based of the time-dependent absorption and emission spectra, corresponding drug cleavage profiles were obtained (see, FIGS. 6A-B) and the drug release rates were quantified by half-lives (τ1/2). The cleavage profiles and half-lives obtained spectrophotometrically and spectrofluorometrically almost coincide. […] The release of CLB from OCTA-G-XCy-CLB in CM (τ1/2˜25 min) is […] faster than that in PB τ1/2 ˜2.5 h. Thus, the drug release for both XCy-CLB and OCTA-G-XCy-CLB in CM is much faster compared to PB. The obtained half-lives of the ester bond cleavage in these media were found in good agreement with some reported data. Linkage of OCTA to the conjugate accelerates the drug release by factor of 6 in PB and 1.3 in CM.
(§4) Absorption spectra were recorded on a Jasco V-730 UV-Vis spectrophotometer and the fluorescence spectra were measured on Edinburgh FS5 spectrofluorometer. The absorption and fluorescence spectra were measured in 1-cm quartz cells at about 0.5 μM dye concentrations in PB 10 mmol buffer pH 7.4 at 25° C. and cell medium pH 7.4. Excitation wavelength was 650 nm. All the solutions were filtered in PVDF 0.45 μm filter before taking spectrum.

Series [3] can be described thus: Absorption and emission spectra of XCy, XCy-CLB and OCTA-G-XCy-CLB in PB and CM. The format is physicochemical. Particulars: for λmaxFl: λex 650 nm. On the procedure:
The absorption and emission spectra of XCy, XCy-CLB and OCTA-G-XCy-CLB were investigated in two different conditions, 10 mM phosphate buffer pH 7.4 containing 10% methanol (PB) and cell medium pH 7.4 containing 10% methanol (CM) (see, Table 1 below). CM was taken as a model of normal physiological conditions during drug delivery in the experiments with cells. A RPMI-1640 standard cell medium that contains 50 mL fetal bovine serum (FBS), 5 mL penicillin (10,000 U/mL), 5 mL streptomycin (10 mg/mL), 5 mL of 200 mM glutamine, and 5.3 mg/L phenol red indicator was utilized. FBS contains enzyme aspartate-aminotransferase that facilitates the ester bond cleavage.
as §4

Series [4] can be described thus: Real time fluorescence microscopy monitoring of CLB release in Panc-1 cells. The format is cell-based. The conditions noted are these: human, pH 7.4, Panc-1, 10 min incubation with 10 μM, 37° C., read-out: CLB cleavage half-life τ1/2. The protocol: as §1, §2, §3
Setting [5] is: CM: cell medium pH 7.4 containing 10% methanol.
Setting [6] is: PB: 10 mM phosphate buffer pH 7.4 containing 10% methanol.

Consider `C[C@@H](O)[C@H](NC(=O)[C@@H]1CSSC[C@H](NC(=O)[C@H](Cc2ccccc2)NC(=O)CCCNC(=O)CCCCC[N+]2=C(/C=C/C3=C4Oc5cc(OC(=O)CCCc6ccc(N(CCCl)CCCl)cc6)ccc5C=C4CCC3)C(C)(C)c3ccccc32)C(=O)N[C@@H](Cc2ccccc2)C(=O)N[C@@H](Cc2c[nH]c3ccccc23)C(=O)N[C@@H](CCCCN)C(=O)N[C@@H]([C@@H](C)O)C(=O)N1)C(N)=O` [OCTA-G-XCy-CLB], for which, in the series with Panc-1, the “Growth Inhibition (GI) / toxicity” value was “significantly elevated growth inhibition compared to CHO”. Moreover, the results for the half-life at 10 μM in series [1] and in series [4] were roughly 2.5 h and roughly 0.417 h, respectively. In addition, the half-life at 0.5 μM in series [2] (bovine, cell medium (contains esterase), in CM (cell medium pH 7.4, esterase present)) was roughly 0.417 h; in series [2] (phosphate buffer (PB), in PB pH 7.4) it was roughly 2.5 h. Besides, the λmaxAbs in series [3] (setting [5]) and in series [3] (setting [6]) was 604 nm throughout. For the same compound, the λmaxFl entry in series [3] (setting [5]) and in series [3] (setting [6]) was “No fl” each time. The absorption maximum in series [3] (in PB and CM) is given as roughly 600 nm. Further, in series [3] (in PB and CM), the fluorescence result is listed as “not detectable”.
